In patent publication US20140274782A1 (Stanford University, published 2014):

Tests used:
Assay in all cases: ProtoArray, GST-treated control array;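 also: human protein microarray (about 9500 recombinant proteins) incubated overnight with GST alone plus SAM cofactor as the negative control for G9a SET domain methylation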
[1] = target: T1, LYPLAL1-lysophospholipase-like 1 (LYPLAL1) (human, UniProt Q5VWZ2 1-237)
T1 sequence (looked up): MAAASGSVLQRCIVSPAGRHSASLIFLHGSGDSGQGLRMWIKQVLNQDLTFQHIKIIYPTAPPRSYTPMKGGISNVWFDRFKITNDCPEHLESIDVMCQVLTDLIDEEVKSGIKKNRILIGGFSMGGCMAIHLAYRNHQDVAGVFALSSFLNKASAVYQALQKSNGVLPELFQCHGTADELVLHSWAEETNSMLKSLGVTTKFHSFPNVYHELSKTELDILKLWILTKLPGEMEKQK

[2] = target: T2, CLDN15-claudin 15 (CLDN15) (human, UniProt P56746 1-228)
T2 sequence (looked up): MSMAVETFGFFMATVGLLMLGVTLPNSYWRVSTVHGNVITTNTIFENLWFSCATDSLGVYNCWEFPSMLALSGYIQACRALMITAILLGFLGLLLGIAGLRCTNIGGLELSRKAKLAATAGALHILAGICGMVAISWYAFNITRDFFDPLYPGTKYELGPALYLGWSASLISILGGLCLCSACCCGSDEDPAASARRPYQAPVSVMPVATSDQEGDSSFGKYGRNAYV

[3] = target: T3, RAB33B-RAB33B, member RAS oncogene family (RAB33B) (human, UniProt Q9H082 1-229)
T3 sequence (looked up): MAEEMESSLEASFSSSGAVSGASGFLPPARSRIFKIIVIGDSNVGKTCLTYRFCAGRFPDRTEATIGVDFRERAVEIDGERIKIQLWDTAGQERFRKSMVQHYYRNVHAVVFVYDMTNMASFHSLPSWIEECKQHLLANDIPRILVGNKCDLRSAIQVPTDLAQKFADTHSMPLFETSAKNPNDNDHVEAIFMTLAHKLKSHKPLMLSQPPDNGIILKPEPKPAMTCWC

[4] = target: T4, DIRAS1-DIRAS family, GTP-binding RAS-like 1 (DIRAS1) (human, UniProt O95057 1-198, limits assumed)
T4 sequence (looked up): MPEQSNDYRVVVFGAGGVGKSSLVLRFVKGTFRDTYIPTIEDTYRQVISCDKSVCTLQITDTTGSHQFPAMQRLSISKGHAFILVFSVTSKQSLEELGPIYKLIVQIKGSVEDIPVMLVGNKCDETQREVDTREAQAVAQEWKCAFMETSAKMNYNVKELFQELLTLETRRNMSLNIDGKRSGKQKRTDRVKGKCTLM

[5] = target: T5, C12orf62-chromosome 12 open reading frame 62 (C12orf62) (human, UniProt Q96I36 1-57)
T5 sequence (looked up): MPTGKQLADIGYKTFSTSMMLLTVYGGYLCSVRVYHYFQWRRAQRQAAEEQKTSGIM

[6] = target: T6, CNTD1-Cyclin N-terminal domain-containing protein 1 (human, UniProt Q8N815 1-330)
T6 sequence: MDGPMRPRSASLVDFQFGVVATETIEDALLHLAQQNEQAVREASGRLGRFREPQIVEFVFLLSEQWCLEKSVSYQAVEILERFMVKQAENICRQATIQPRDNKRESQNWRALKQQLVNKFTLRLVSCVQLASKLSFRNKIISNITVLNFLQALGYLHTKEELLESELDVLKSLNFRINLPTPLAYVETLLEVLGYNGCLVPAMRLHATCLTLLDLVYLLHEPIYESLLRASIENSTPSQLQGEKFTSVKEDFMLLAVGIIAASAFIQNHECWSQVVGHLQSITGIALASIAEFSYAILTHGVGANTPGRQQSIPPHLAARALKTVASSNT

[7] = target: SAR1B-SAR1 gene homolog B (S. cerevisiae) (SAR1B), transcript variant 2 (human, UniProt Q9Y6B6 1-198)
[8] = target: T7, ZRANB1-zinc finger, RAN-binding domain containing 1 (ZRANB1) (human, UniProt Q9UGI0 1-708)
T7 sequence (looked up): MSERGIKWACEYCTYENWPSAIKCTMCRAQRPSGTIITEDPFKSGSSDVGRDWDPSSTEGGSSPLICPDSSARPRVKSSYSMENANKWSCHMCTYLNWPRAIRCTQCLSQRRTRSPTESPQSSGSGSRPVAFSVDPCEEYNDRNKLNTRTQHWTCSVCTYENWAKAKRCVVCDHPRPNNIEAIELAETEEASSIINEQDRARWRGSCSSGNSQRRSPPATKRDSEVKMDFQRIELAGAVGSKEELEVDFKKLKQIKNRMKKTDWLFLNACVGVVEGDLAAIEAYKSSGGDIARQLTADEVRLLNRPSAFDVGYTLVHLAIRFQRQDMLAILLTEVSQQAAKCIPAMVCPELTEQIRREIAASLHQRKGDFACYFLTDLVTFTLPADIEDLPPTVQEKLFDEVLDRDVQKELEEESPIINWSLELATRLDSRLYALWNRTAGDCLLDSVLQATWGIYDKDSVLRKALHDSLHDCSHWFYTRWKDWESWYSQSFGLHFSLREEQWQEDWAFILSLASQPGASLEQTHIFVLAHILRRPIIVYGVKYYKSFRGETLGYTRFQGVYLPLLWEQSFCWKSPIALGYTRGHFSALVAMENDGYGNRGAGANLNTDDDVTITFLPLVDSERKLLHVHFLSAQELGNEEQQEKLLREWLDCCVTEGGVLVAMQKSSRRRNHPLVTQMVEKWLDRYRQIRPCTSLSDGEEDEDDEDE

SAR1B-SAR1 gene homolog B (S. cerevisiae) (SAR1B), transcript variant 2, sequence (Q9Y6B6 whole entry, change not shown, the tested form may be a part): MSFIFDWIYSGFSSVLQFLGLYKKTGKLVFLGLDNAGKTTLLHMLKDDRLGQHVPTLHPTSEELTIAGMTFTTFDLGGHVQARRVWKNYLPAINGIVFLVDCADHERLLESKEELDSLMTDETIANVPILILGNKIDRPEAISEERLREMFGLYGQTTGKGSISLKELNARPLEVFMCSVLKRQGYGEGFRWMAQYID

B1: 3× Flag-3×MBT (designed binder)
chain: EEWSSSQPATGEKKECWSWESYLEEQKAITAPVSLFQDSQAVTHNKNGFKLGMKLEGIDPQHPSMYFILTVAEVCGYRLRLHFDGYSECHDFWVNANSPDIHPAGWFEKTGHKLQPPKGYKEEEFSWSQYLRSTRAQAAPKHLFVSQSHSPPPLGFQVGMKLEAVDRMNPSLVCVASVTDVVDSRFLVHFDNWDDTYDYWCDPSSPYIHPVGWCQKQGKPLTPPQDYPDPDNFCWEKYLEETGASAVPTWAFKVRPPHSFLVNMKLEAVDRRNPALIRVASVEDVEDHRIKIHFDGWSHGYDFWIDADHPDIHPAGWCSKTGHPLQPPLGPREPSSASPGG
notes: also called Flag-tagged 3×MBT; 3xFlag-3xMBT; not shown: made by PreScission cleavage of GST-3× Flag-3×MBT
GST Average SNR [1]: 0.066 | GST Average SNR [2]: -0.296 | GST Average SNR [3]: 0.0035 | GST Average SNR [4]: 0.988 | GST Average SNR [5]: 0.575 | GST Average SNR [6]: 0.567 | GST Average SNR [7]: 0.558 | GST Average SNR [8]: -0.43
